IntAct's records for PubMed 26160948

B1: Insulin-induced gene 2 protein (Homo sapiens), Q9Y5U4 (parent)
chain: MAEGETESPGPKKCGPYISSVTSQSVNLMIRGVVLFFIGVFLALVLNLLQIQRNVTLFPPDVIASIFSSAWWVPPCCGTASAVIGLLYPCIDRHLGEPHKFKREWSSVMRCVAVFVGINHASAKVDFDNNIQLSLTLAALSIGLWWTFDRSRSGFGLGVGIAFLATVVTQLLVYNGVYQYTSPDFLYVRSWLPCIFFAGGITMGNIGRQLAMYECKVIAEKSHQE
partner: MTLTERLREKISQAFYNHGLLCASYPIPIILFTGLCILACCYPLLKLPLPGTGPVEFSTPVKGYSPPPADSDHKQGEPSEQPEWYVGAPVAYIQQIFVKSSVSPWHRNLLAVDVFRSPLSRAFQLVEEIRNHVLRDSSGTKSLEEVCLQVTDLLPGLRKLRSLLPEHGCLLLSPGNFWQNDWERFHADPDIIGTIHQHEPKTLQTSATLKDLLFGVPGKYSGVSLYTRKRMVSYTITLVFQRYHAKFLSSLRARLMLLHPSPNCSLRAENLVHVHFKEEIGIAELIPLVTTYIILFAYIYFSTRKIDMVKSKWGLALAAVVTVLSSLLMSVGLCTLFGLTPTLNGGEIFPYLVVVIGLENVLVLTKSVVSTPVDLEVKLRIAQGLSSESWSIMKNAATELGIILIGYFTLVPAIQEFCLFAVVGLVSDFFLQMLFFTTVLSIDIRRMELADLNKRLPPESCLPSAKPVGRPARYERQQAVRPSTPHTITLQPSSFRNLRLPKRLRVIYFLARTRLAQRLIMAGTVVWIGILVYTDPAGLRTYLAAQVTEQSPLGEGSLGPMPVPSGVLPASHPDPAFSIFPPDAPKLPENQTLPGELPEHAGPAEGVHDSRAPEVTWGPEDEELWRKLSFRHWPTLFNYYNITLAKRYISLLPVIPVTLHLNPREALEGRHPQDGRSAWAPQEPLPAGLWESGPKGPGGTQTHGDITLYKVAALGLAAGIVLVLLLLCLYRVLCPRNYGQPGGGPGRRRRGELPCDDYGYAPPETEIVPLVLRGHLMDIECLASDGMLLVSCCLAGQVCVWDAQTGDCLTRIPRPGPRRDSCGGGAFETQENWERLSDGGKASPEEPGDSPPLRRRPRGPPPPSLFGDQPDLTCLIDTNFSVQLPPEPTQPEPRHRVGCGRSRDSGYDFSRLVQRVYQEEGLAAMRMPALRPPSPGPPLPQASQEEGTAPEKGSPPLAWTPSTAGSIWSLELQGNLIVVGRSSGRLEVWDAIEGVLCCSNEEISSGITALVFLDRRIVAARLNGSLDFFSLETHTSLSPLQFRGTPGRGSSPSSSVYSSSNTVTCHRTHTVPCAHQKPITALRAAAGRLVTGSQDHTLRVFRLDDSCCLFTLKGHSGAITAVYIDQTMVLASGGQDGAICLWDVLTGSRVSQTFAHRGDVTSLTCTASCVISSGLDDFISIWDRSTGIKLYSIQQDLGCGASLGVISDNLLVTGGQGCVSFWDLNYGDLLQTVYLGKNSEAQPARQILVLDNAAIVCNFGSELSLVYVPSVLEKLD

Variants of: B1
Details: with scap_mouse Scap

| effect of a mutation on the interaction | Variant |
| --- | --- |
| decreasing interaction strength | Q132A |
| decreasing interaction strength | G117F |
| decreasing interaction strength | C77D |
| decreasing interaction strength | M203W |
| disrupting interaction strength | D149A |
| decreasing interaction strength | G200F |
| decreasing interaction strength | G39F |
| disrupting interaction strength | A113W |
| disrupting interaction strength | H120F |
| disrupting interaction strength | F115A |
| disrupting interaction strength | W145A |
| decreasing interaction strength | N47A;Q50F;N119F |
